Publication PMC8810680 (Nature chemical biology, 2021)
Where “and” joins values, the source holds several entries; their conditions need not be identical. Equal values may be shown once.

Assays:
GudB6-GltA2B2 = GudB6-GltA2B2 (Bacillus subtilis, UniProt O34399+P39812); test: cryo-EM structure, […] A; type: binding; settings: co-purified
[1] = biological target: glutamate dehydrogenase GudB (untagged, in B. subtilis NCIB 3610) (B. subtilis (endogenous in strain NCIB 3610)); test: cryo-EM structure
[2] = biological target: TwinStrep-tagged GltB (B. subtilis) (UniProt O34399); test: mass photometry
[3] = biological target: recombinant 6X His-tagged GudB (B. subtilis); test: cryo-EM structure
[4] = biological target: glutamate dehydrogenase GudB (untagged, in B. subtilis NCIB 3610) (B. subtilis (endogenous in strain NCIB 3610)); test: native MS
[5] = biological target: recombinant 6X His-tagged GudB (B. subtilis); test: native MS
[6] = biological target: recombinant Strep-tagged GudB (B. subtilis); test: native MS

Sequence of recombinant 6X His-tagged GudB (B. subtilis) (P50735 whole entry): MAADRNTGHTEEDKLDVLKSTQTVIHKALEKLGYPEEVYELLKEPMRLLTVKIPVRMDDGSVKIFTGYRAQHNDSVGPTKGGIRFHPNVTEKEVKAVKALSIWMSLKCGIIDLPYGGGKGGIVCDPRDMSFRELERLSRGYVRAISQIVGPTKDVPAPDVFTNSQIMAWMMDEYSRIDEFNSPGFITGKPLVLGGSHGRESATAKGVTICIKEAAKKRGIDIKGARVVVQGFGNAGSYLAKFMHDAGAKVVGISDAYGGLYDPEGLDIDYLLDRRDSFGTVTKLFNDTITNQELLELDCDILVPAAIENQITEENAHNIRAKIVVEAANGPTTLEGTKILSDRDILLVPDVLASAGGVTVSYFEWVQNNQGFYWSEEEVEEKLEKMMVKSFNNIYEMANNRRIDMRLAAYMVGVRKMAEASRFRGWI
Sequence of TwinStrep-tagged GltB (B. subtilis) (O34399 whole entry): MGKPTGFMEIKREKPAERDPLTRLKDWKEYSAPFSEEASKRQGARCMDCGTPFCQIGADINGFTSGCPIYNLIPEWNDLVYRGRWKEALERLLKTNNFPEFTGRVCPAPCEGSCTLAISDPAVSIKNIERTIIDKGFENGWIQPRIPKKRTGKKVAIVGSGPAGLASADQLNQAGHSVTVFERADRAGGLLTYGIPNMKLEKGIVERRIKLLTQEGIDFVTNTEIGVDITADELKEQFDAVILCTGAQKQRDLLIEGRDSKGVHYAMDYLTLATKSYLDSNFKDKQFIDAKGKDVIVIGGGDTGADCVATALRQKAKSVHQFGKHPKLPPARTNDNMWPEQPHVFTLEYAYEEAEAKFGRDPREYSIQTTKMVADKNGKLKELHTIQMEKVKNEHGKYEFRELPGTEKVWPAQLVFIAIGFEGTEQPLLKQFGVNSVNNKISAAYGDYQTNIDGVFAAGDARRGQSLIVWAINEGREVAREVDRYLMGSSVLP
Sequence of GudB6-GltA2B2 (P39812 22-1520): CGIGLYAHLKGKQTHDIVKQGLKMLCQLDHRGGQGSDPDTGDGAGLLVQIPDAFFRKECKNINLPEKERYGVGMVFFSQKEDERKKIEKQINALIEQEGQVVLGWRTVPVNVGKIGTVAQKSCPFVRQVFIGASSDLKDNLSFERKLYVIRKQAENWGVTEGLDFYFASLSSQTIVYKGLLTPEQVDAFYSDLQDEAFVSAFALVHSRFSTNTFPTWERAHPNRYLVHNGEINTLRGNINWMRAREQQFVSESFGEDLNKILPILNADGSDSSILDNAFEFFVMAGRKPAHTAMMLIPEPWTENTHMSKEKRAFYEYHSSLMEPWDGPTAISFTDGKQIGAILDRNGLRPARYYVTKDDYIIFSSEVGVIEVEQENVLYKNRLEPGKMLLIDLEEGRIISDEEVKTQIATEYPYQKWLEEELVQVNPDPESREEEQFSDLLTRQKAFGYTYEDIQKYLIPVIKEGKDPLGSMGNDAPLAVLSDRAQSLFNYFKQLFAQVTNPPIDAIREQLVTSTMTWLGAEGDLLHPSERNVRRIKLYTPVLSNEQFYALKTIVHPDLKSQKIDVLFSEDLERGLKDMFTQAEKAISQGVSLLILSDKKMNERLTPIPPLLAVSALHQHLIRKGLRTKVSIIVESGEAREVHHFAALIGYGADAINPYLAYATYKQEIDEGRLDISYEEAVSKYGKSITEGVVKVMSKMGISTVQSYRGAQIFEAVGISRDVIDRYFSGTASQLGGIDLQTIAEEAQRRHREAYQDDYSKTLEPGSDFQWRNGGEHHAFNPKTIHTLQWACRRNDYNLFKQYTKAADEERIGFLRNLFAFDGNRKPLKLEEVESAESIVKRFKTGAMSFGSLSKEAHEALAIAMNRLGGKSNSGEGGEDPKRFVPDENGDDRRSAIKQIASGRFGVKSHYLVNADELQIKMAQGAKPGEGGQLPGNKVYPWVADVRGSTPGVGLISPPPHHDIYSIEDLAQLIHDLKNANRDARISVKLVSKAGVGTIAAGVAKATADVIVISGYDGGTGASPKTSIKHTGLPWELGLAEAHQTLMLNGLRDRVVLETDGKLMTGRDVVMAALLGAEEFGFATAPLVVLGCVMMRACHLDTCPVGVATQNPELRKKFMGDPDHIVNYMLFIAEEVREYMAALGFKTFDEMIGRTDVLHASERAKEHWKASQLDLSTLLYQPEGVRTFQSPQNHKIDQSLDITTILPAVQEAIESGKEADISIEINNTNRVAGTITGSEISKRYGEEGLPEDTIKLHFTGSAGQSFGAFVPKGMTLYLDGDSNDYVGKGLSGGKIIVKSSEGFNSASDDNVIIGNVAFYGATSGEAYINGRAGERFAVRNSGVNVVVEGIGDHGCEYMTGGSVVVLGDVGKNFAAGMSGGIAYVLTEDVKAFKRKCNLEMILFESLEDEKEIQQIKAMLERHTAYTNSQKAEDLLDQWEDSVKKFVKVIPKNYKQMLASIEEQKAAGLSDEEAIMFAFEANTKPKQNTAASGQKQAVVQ
Sequence of GudB6-GltA2B2 (O34399 whole entry): as the sequence (O34399 whole entry) above
Sequence of GudB6-GltA2B2 (A0A0C3GZC9 1-424 partner): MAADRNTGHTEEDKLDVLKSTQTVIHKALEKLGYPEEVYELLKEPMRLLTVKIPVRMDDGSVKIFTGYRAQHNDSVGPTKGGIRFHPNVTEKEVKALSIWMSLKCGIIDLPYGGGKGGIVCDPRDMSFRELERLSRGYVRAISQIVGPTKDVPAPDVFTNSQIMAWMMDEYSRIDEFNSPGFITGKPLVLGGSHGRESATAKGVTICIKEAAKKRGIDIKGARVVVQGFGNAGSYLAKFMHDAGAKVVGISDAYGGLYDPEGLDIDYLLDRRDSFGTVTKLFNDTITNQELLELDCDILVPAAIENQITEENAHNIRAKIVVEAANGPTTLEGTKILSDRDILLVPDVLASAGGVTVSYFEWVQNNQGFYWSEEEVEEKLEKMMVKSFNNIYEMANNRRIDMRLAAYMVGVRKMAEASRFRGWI
Sequence of glutamate dehydrogenase GudB (untagged, in B. subtilis NCIB 3610) (B. subtilis (endogenous in strain NCIB 3610)) (P50735 whole entry): as the sequence (P50735 whole entry) above
Sequence of glutamate dehydrogenase GudB (untagged, in B. subtilis NCIB 3610) (enzyme) (P50735 whole entry): as above
Sequence of recombinant Strep-tagged GudB (enzyme) (P50735 whole entry): as above
Sequence of recombinant 6X His-tagged GudB (enzyme) (P50735 whole entry): as above

## [S]12[Fe]3[S]4[Fe]1[S]1[Fe]2[S]3[Fe]41 [4Fe-4S cluster]
GudB6-GltA2B2; two clusters, site in GltB
  cryo-EM structure, 2.4 A: unambiguous assignment of two 4Fe-4S clusters in GltB

## Cc1cc2nc3c(=O)[nH]c(=O)nc-3n(C[C@H](O)[C@H](O)[C@H](O)COP(=O)(O)OP(=O)(O)OC[C@H]3O[C@@H](n4cnc5c(N)ncnc54)[C@H](O)[C@@H]3O)c2cc1C [FAD]
GudB6-GltA2B2; listed among GltAB cofactors in the figure legend only
  cryo-EM structure, 2.4 A: The co-factors in GltAB: FAD, two 4Fe-4S clusters (SF4), 3Fe-4S cluster (F3S) and FMN

## Cc1cc2nc3c(=O)[nH]c(=O)nc-3n(C[C@H](O)[C@H](O)[C@H](O)COP(=O)(O)O)c2cc1C [FMN]
GudB6-GltA2B2; site in GltA
  cryo-EM structure, 2.4 A: a 3Fe-4S clusters and FMN in GltA

## glutamate dehydrogenase GudB (untagged, in B. subtilis NCIB 3610) (enzyme)
[1]
  stoichiometry N: 6

## glutamate synthase subunit GltA (from UniProt P39812 1-1520) (enzyme)
[2]
  percent of counts as GltAB, no ligand: 5 % of counts
  percent of counts as GltAB, with AKG: 12 % of counts
  percent of counts as GltAB, with AKG and NADPH: 16 % of counts
[1]
  stoichiometry N (GltAB heterodimers per GudB hexamer): 6
[3]
  stoichiometry N (GltAB heterodimers per GudB hexamer): 2 to 4
[4]
  stoichiometry N (GltAB heterodimers per GudB hexamer): 6
[5]
  stoichiometry N (GltAB heterodimers per GudB hexamer): 3 and 6

## recombinant 6X His-tagged GudB (enzyme)
[3]
  stoichiometry N: 6

## recombinant Strep-tagged GudB (enzyme)
[6]
  stoichiometry N: 6
